The data set can be described thus: label from the status in PepcDB records.
For the sequence “RLSAREAIALLSDDFDRLPVAEGAYAPDGPLSWQGYDASRARATERTGEDESVVCGRARIDGTPAVLIAFEFGFLGGSLGERTGDRLEAAYTYARAHRLPVVSLVATGGSRMQEGMLALTQLQRVARQSALTRAAGLPQLAVLRDPTTGGGWATLGAGADVVLALPGVQVGFAGSRVRPPDADPAAYTAQAQLAAGSIDAVVRPQELRETVGLWLALLTAPSTEP”, the protein production result is “failed”.

Regarding “RMPTRRWAPGTQCITKCEHTRPKPGELAFRKGDVVTILEACENKSWYRVKHHTSGQEGLLAAGALRER”, the protein production entry was “not failed”.

Turning to “RNYNNPVVLCGFAGSTPTGVLAASYIVETLGMHQVAHLISQHIPPVAVFVGGKLRHPFRIYANNSNTVLVAMCEVPISSAHIYEISNTLMNWIDQVGASEIVIMEGSPANGIPEERPVFAVAEKPKLDKFKKAGIQPADSAIIAGMGGGILNECLVRKITGLSFITPTSVDIPDPGAVLSIIEAINKAYNLKIKTDLLEEQVKALDEQIKKIEEQYKELQEKQKEPQSMYG”, the protein production entry is reported as “not failed”.

On to “RPNVERDAQRRVNIRVTDEIVTALNERRIVMAFEPVVQAVSRAPAFHECLVRMKQDDGELLLAPDIVPVAEKLGLIRLVDHRVLELVVAELAAAPGVELSLNISPDTTMDADWWASIESLLGANPGVAERLIVEITETVAIQDLDDVRGFVNRLKNFGARIAIDDFGAGYTSFRNLRNLGVDIVKIDGAFVQNIARSADDRAFVQTLIDLARRLEIKTVAEWVQDEASAIMLRDWGCDYIQGRLIGLA”, for which the protein production result was “failed”.

“RRAKALLDFERHDDDELGFRKNDIITIISQKDEHCWVGELNGLRGWFPAKFVEVLDERSKEYSIA”: the protein production entry is recorded as “not failed”.

Turning to “RSEIVRLNSLMNDILNNIPVYLFVKDTGNDFRYLYWNKAFAEHSGISVQRAVGSTDADIFPDKKDAEHFREDDLKVMKLGRIEYLENYTTMSGEVRTVTTMKTVVPSGGQHPYIIGVSWDVT”, the protein production result is “failed”.

For the sequence “RTDRTALIDLMQALNQHMTYTQGATEVDTSAAQAFAGRSGVCQDHTHAFLACARSLGVPARYVSGYLCSEDSEHLSSHAWAEAWIDDAWYSFDVTNQLAIPERHLKLAVGLDYLDACPVRGMRRG”, the protein production result was “failed”.

Turning to “RTNRLSAVQSNKMIVRAMERGVSAERLGKALGLSPQTIRQRFRLLNGICAEVVALLGDTDCPANVFNLLRQMKPLRQIEAAELMIGNKNLSVLLAKALLAATPPDQLVMIKKPSQDHQVSAESMARLERELAALQMQIKTVEEDYGPDVLHLTVIKGYLTKLLANAAVVRWLARHQPEYLKEFQSIAELTELPWADNGPEDDLQSTTAEG”, the protein production entry is reported as “not failed”.

On to “RVGIIVAAHGNSTASSMVEVATELLGSTPIAAVDMPLTVSPSDILECVAEKMKQVDEGEGVLMLVDMGSLAMLESRLEEKTGISIKTISNVTTSMVLDAVRKVNYLNLNLHAIYQSVTKDFIELWERQPAASGKK”, for which the protein production entry is “failed”.

With “SAATMKKAAAEDVNVTFEDQQKINKFARNTSRITELKEEIEVKKKQLQNLEDACDDIMLADDDCLMIPYQIGDVFISHSQEETQEMLEEAKKNLQEEIDALESRVESIQRVLADLKVQLYAKFGSNINLEADES”, the protein production entry is given as “failed”.

On to “SASLLDKAKDFVADKLTAIPKPEGSVTDVDLKDVNRDSVEYLAKVSVTNPYSHSIPICEISFTFHSAGREIGKGKIPDPGSLKAKDMTALDIPVVVSYSILFNLARDVGVDWDIDYELQIGLTIDLPVVGEFTIPISSKGEIKLPTFKDFF”, for which the protein production result is given as “failed”.

Turning to “SAVPGGMFAPSLAVGAGFGLNMSQLLPFLPQSMVVLLGMVGFFAGMTRAPMTGFVIVMEMTDTSGMIIPLMATALIAASVSRLVSRRALYDGQVRLFLPQWRTQAGQ”, the protein production entry was “failed”.

As for “SCEKENIGIEVTPVNAKFIITPVVIDATTGTDVTQSAEISFSKGNGTYEGTPELASESININAKYKGMTGSASVTIPALKAGQFGAKEVTIILSENFFAQEESSNSQIETTKHSGFKNNTSDYWYYITVTYTKKEGSEVIKNDYEGDDSEIKNIIDAYNKGVREDKVTLNDVQVLAHSRFSVFVDYMKTTSVYQIIEKSPKRDGNPVASFTVDSYNTIVSPKNEQIPGHGHAPSHGHGHGHGDDSNAGGGIIIAD”, the protein production result was “not failed”.

Turning to “SDESDLPSAMPAVPAFGVEERNMVSGVLTLAERSIRSIMTPRTDVSWVNIDDDAATIRQQLTAAPHSFFPVCRGSLDEVVGIGRAKDLVADLITEGRVRRNRLRDPIIVHESIGILRLMDTLKRSRGQLVLVADEFGAIEGLVTPIDVFEAIAGEFPDEDELPDIVA”, the protein production result was “failed”.

In the case of “SDESGMRTYVRTLSFILSKAVADILPGSKLFIEHSLSNGYYCQIKNAHMITPGEIVRIKERMESLIVADIPFRAHCERTEEVAAMFRSMGYEDKADLLETKGMP”, the protein production entry was “failed”.

Take “SDNLSSEEIQQRAHQITDESLESTRRILGLAIESQDAGIKTITMLDEQKEQLNRIEEGLDQINKDMRETEKTLTELNKCCGLCVCPCNRTKNFESGKAYKTTWGDGGENSPCNVVSKQPGPVTNGQLQQPTTGAASGGYIKRITNDAREDEMEENLTQVGSILGNLKDMALNIGNEIDAQNPQIKRITDKADTNRDRIDIANARAKKLIDS”: the protein production entry is “not failed”.

Consider “SETRSPGLNNMKPQSLQLVLEEQVLALQQQMAENQAASWRKLKNSQEAQQRQATLVRKLQAKVLQYRSWCQELEKRLEATGGPIPQRWENVEEPNLDELLVRLEEEQQRCESLAEVNTQLRLHMEKADVVNKALREDVEKLTVDWK”, for which the protein production entry is “failed”.

Turning to “SFKPVMQKFLHDHVDLQVSALYALQVHCYNSNFPKGMLLRFFVHFYDMEIIEEEAFLAWKEDITQEFPGKGKALFQVNQ”, the protein production result was “failed”.

On to “SGGTLRIYADSLKPNIPYKTILLSTTDTADFAVAESLEKYGLEKENPKDYCIARVMLPPGAQHSDERGAKEIILDDDECPLQIFREWPSDKGILVFQLKRRPP”, for which the protein production entry is recorded as “not failed”.

“SGILFMSKVGLRGDRRSEGDEVLDPLRQALDSSMQSHNLYQHPQHLAFHVSAPVASTVQQASGLLGPLPHLSSFALQPAHSLLPPLGSHGAGFQENGAKAES”: the protein production entry is “not failed”.

“SHIIVIGAGITGVTSAYELIKLGFQVTVIDRHLFPAMETSFANGGQLSACNAEVWNQRSTISKGIKWMSKKDAPLLLNPSFNLHKYSWLFEFLSHIKHYEQNTIETVRLALLARKRLFEIAEIENIDFNLERRGILHIYHTPSDYEIAKNVNDLLNKATLHRYQVNPDEIKTIEPALSGEYCGGYYTPDDATGDIHKFCVGLADSSKRDGVDYKFGWDVNQIELLEKGVIVSCIPSTENMTEPSSQHLRLEADGIVVCGGVGSYQLAHMLGDRVNVYPVKGYSITVHLNDEHSIENAPWVSLLDESAKIVTSRLGKDRLRVAGTAEFNGYNRDIRADRIQPLINWVNANFEISTEHVVPWSGLRPMMPNMMPVVRQGKHPRVFYNTGHGHLGWTLSAATAAIIGQEIQSKIP”: the protein production result is “failed”.

For the sequence “SHRSAAAFVDAERELFVRDQPIGPDDRVLAGLSVAFDASCEEMWLAWGHGACLVPAPRSLVRTGLDLGPWLISRDISIVSTVPTLAGMWPAEALDNVRLLILGGEACSAELVARVASSRREVWNTYGPTEATVVTCAARLEAGQPVAIGLPLAG”, the protein production result is “failed”.

Turning to “SKALLFVIIGSVLVMLLLVGVIIMLLMGNKEESKENASKNTQEVQANPMANKNQEAKEGSNIQQYLVLGPLYAIDAPFAVNLVSQNGRRYLKASISLELSNEKLLNEVKVKDTAIKDTIIEILSSKSVEEVVTNKGKNKLKDEIKSHLNSFLIDGFIKNVFFTDFIIQ”, the protein production result is recorded as “failed”.

As for “SKCLERFGPFYLLYKDRLSFVNADASELTFHPDTAVLRLKAPHDALISLLGQSPKSILDTTMGLASDSLVMAAVRNRVTALESQEVIFQVVSRGLATYQTDNKQIEKAMRSIKAVKSDSLTFLKSQTDHSFDIIYADPMFSETIKESENLNAIKPLANGSRLTREWLDEAKRVGRERIIIKAHFRDSVFEELGFERQVRP”, the protein production result is “failed”.

For the sequence “SKGMALRSVGGMVIESPRNETEHWLLETVGRQAQQAGIGMPTVAIYDSADINAFATGAKRDDSLVAVSTGLLHNMTRDEAEAVLAHEVSHIANGDMVTMTLMQG”, the protein production result is “not failed”.

With “SKSTKNDVKITALSTSESQIISHMLRLLIEHDTHGKIKPTLVNNLGSSTIQHNALINGDANISGVRYNGTDLTGALKEAPIKDPKKAMIATQQGFKKKFDQTFFDSYGFANTYAFMVTKETAKKYHLETVSDLAKHSKDLRLGMDSSWMNRKGDGYEGFKKEYGFDFGTVRPMQIGLVYDALNTEKLDVALGYSTDGRIAAYDLKVLKDDKQFFPPYAASAVATNELLRQHPELKTTINKLTGKISTSEMQRLNYEADGKGKEPAVVAEEFLKKHHYFD”, the protein production result was “not failed”.

On to “SLDPVSQSKLEQAIHDQIPQLAKTAGKDLEAAAIAVDRHSGEIRAMVGGKRTGYDGFNRVLNASRQIGSLVKPAVYLTALAHPDQYNLATTLEDKPLTLKGSEGSAWTPRNYDRQYRGEVPLYLALAQSLNVPTVALGMKLGIDQVSATLGKLGVNRDEIRPVPSMLLGSFSLTPYQVAQMYQTLTNSGKKAPLSALRSVLDLEGNVLYESLPRVSQAVDQQAAWLTTYAMKQGVQEGTGRYLNAQFSSAALAGKTGTTNDNRDSWFVGVDGREVTTIWLGRDDNQPTKLTGASGALRVYAQYLKYRIPEKLQLPW”, for which the protein production result was “failed”.

For the sequence “SLENAGSRPFLADFNGFSYLELKGLHTFERDLGEKMALEMVFLARGPSGLLLYNGQKTDGKGDFVSLALHNRHLEFRYDLGKGAAIIRSKEPIALGTWVRVFLERNGRKGALQVGDGPRVLGESPVPHTMLNLKEPLYVGGAPDFSKLARGAAVASGFDGAIQLVSLRGHQLLTQEHVLRAVDVAPFAG”, the protein production result is “not failed”.

As to “SLEPAQANMDISTGHMILAYMEDHLRNRDRLAKEWQALCAYQAEPNTCATAQGEGNIKKNRHPDFLPYDHARIKLKVESSPSRSDYINASPIIEHDPRMPAYIATQGPLSHTIADFWQMVWESGCTVIVMLTPLVEDGVKQCDRYWPDEGASLYHVYEVNLVSEHIWCEDFLVRSFYLKNVQTQETRTLTQFHFLSWPAEGTPASTRPLLDFRRKVNKCYRGRSCPIIVHCSDGAGRTGTYILIDMVLNRMAKGVKEIDIAATLEHVRDQRPGLVRSKDQFEFALTAVAEEVNAILKALPQ”, the protein production entry is listed as “not failed”.

On to “SLGDQKPATIYAPTVRVTPNPAWPQVSWQLLVAKPSAARIIDSPRINVRPTPGELQVYHGAGWAQPATDMLEDSVVRAFEDSGKIAAVARIGAGIRSDYKLAIDVRRFESDYAGQSLPAATIELNAKLLHSSDQRVVASRTFTVARPSSSTDTAAVAAAFEQALTQVTTELVGWTLITGQQDSQTLPRAL”, for which the protein production result was “not failed”.
